According to publication PMC9065997, “Mitochondria-associated myosin 19 processively transports mitochondria on actin tracks in living cells” (The Journal of Biological Chemistry, 2022):

Target: the molecule itself
Test: single-molecule photobleaching steps and spot intensity distribution (TIRF microscopy, HILO illumination); Halo-HM19 constructs expressed in living HeLa cells, stained with R110 Direct HaloTag ligand, spots in filopodia, 37 °C

B1: Halo-HM19^IQ3LZ (tail-truncated human myosin 19, residues 1-834, forced dimer with GCN4 leucine zipper, N-terminal HaloTag) (other)
chain: MLQQVNGHNPGSDGQAREYLREDLQEFLGGEVLLYKLDDLTRVNPVTLETVLRCLQARYMADTFYTNAGCTLVALNPFKPVPQLYSPELMREYHAAPQPQKLKPHVFTVGEQTYRNVKSLIEPVNQSIVVSGESGAGKTWTSRCLMKFYAVVATSPASWESHKIAERIEQRILNSNPVMEAFGNACTLRNNNSSRFGKFIQLQLNRAQQMTGAAVQTYLLEKTRVACQASSERNFHIFYQICKGASEDERLQWHLPEGAAFSWLPNPERSLEEDCFEVTREAMLHLGIDTPTQNNIFKVLAGLLHLGNIQFAASEDEAQPCQPMDDAKYSVRTAASLLGLPEDVLLEMVQIRTIRAGRQQQVFRKPCARAECDTRRDCLAKLIYARLFDWLVSVINSSICADTDSWTTFIGLLDVYGFESFPDNSLEQLCINYANEKLQQHFVAHYLRAQQEEYAVEGLEWSFINYQDNQPCLDLIEGSPISICSLINEECRLNRPSSAAQLQTRIETALAGSPCLGHNKLSREPSFIVVHYAGPVRYHTAGLVEKNKDPIPPELTRLLQQSQDPLLMGLFPTNPKEKTQEEPPGQSRAPVLTVVSKFKASLEQLLQVLHSTTPHYIRCIKPNSQGQAQTFLQEEVLSQLEACGLVETIHISAAGFPIRVSHRNFVERYKLLRRLHPCTSSGPDSPYPAKGLPEWCPHSEEATLEPLIQDILHTLPVLTQAAAITGDSAEAMPAPMHCGRTKVFMTDSMLELLECGRARVLEQCARCIQGGWRRHRHREQERQWRAVMLIQAAIRSWLTRKHIQRLHAAATVIKRAWQKWRIRMACLAAKELDGGTTHSYTSMKQLEDKVEELLSKNYHLENEVARLKKLVGERTSMKQLEDKVEELLSKNYHLENEVARLKKLVGERTSGSEL
modifications: rhodamine 110 (R110 Direct HaloTag ligand) on the HaloTag
notes: myosin 19 (Myo19, HM19), human, residues 1-834 (motor domain and three IQ motifs; 835 to 970 removed), cDNA from GeneCopoeia NM_001163735.1; also called R110-Halo-HM19^IQ3LZ; R110-Halo-HM19^IQ3-LZ; source: HeLa cells, transfected, in living cells; not shown: HaloTag, N-terminal, kept
Question: B1 was tested. Which “stoichiometry N” value did it give?
Answer: Its value is 2.
